The chains are these.
B1: Pistol ribozyme (parent)
chain: GGGUCGUUGUUCCAUAAUCGCGUGGAUAUGGCACGCAAGUUUCUACCGGGCACCGUAAAUGUCCGACUGGAGCCGUUCGGGCGGCUAUAAACAGACCUCAGGCCCGAAGCGUGGCGGCACCUGCCGCCGGUGGUAAAAAAGAUCGGAAGAGCACACGUCU

The values that follow come from the RNAGym collection of RNA variant scans (doi:10.1021/acssynbio.7b00057).

In this series the parent is B1. As to the kind of experiment: aptazyme ON/OFF ratio, guanine; higher = stronger switching; co-transcriptional cleavage with and without guanine.
In the case of G9A U11A C12G, the “aptazyme ON/OFF ratio” value stood at 1.51. Consider G9A U10G U11A C12A, for which the “aptazyme ON/OFF ratio” value came to 1.17. Under G9A U10G U11A C12G stands 1.33. Consider G9A U10G U11A C12U, for which the “aptazyme ON/OFF ratio” value is 1.04.

For G9A U11A C12U C13A, the “aptazyme ON/OFF ratio” value amounted to 1.37. In the case of G9A U11A C12U C13U, the “aptazyme ON/OFF ratio” value amounted to 1.91.

For G9A U11A C12U C13G, the “aptazyme ON/OFF ratio” value came out at 1.33. Under G9C U10C U11G C12G C13U stands 1.11.

Consider G9C U10C U11G C12G C13G, for which the “aptazyme ON/OFF ratio” value came to 1.13. With G9C U10C U11G C12G C13A, the “aptazyme ON/OFF ratio” value came to 1.04. Take G9C U10C C12U C13G: the “aptazyme ON/OFF ratio” value is 1.06. Under G9C U10C C12U C13U stands 1.07; under G9C U10C C12U C13A, 1.07; under G9C U10A U11C C12G C13U, 1.24. G9C U10A U11C C12G C13A: the “aptazyme ON/OFF ratio” value amounted to 1.32. To G9C U10A U11C C12G C13G belongs 1.44; to G9C U10A C13G, 1.08. In the case of G9C U10A C13U, the “aptazyme ON/OFF ratio” value was found to be 1.3.

In the case of G9C U10A C13A, the “aptazyme ON/OFF ratio” value was 1.3. Under G9A U10G U11G C12A stands 1.11. For the variant G9A U10G U11G C12U, the “aptazyme ON/OFF ratio” value stood at 1.48. With G9A U10G U11G C12G, the “aptazyme ON/OFF ratio” value is 1.25. For G9C C12G C13A, the “aptazyme ON/OFF ratio” value was determined as 1.28. To G9C C12G C13U belongs 1.26.

For the variant G9C C12G C13G, the “aptazyme ON/OFF ratio” value is 1.14. Under G9A U10C U11A stands 2.25; under G9A U10C U11C, 1.06.

Take G9A U10C U11G: the “aptazyme ON/OFF ratio” value is 1.86. To G9A U10C U11C C12U C13A belongs 1.03; to G9A U10C U11C C12U C13U, 1.06.

For the variant G9A U10C U11C C12U C13G, the “aptazyme ON/OFF ratio” value amounted to 1.04. Regarding G9A U10C C12A C13G, the “aptazyme ON/OFF ratio” value was 1.29. Under G9A U10C C12A C13U stands 1.19. For the variant G9A U10C C12A C13A, the “aptazyme ON/OFF ratio” value amounted to 1.46. Under G9C U10C U11A C13G stands 1.07; under G9C U10C U11A C13A, 1.05; under G9C U10C U11A C13U, 1.07.

Consider G9A U10C U11A C13A, for which the “aptazyme ON/OFF ratio” value is 1.41. Under G9A U10C U11A C13G stands 1.14; under G9A U10C U11A C13U, 1.3.

As for G9A U10C U11G C12U, the “aptazyme ON/OFF ratio” value turned out to be 1.52. Turning to G9A U10C U11G C12A, the “aptazyme ON/OFF ratio” value came out at 1.03. For the variant G9A U10C U11G C12G, the “aptazyme ON/OFF ratio” value amounted to 1.18.

G9A U11A C12G C13G: the “aptazyme ON/OFF ratio” value worked out at 1.2. To G9A U11A C12G C13U belongs 1.41; to G9A U11A C12G C13A, 1.39; to G9A U10G U11A C12A C13U, 1.1.

Turning to G9A U10G U11A C12A C13G, the “aptazyme ON/OFF ratio” value is 1.09. To G9A U10G U11A C12A C13A belongs 1.08. Under G9A U10C U11C C12A C13G stands 1.18; under G9A U10C U11C C12A C13U, 1.3. Turning to G9A U10C U11C C12A C13A, the “aptazyme ON/OFF ratio” value is 1.12. Under G9A U11C C13A stands 1.03; under G9A U11C C13G, 1.11; under G9A U11C C13U, 1.11. To G9A U10G C12A belongs 1.53; to G9A U10G C12U, 1.82; to G9A U10G C12G, 1.24. To G9C U10A U11C C12G belongs 1.18; to G9C U10A U11C C12A, 1.48. With G9C U10A U11C C12U, the “aptazyme ON/OFF ratio” value came out at 1.13.

On to G9A U10A U11G C12A C13U, for which the “aptazyme ON/OFF ratio” value is 1.26. Under G9A U10A U11G C12A C13G stands 1.28; under G9C U10G, 2.17. With G9C U10C, the “aptazyme ON/OFF ratio” value was determined as 1.52. Under G9C U10A stands 1.98; under G9A U10C U11C C12G, 1.18; under G9A U10C U11C C12A, 1.1. For G9A U10C U11C C12U, the “aptazyme ON/OFF ratio” value stood at 1.06.

For G9C C12A C13A, the “aptazyme ON/OFF ratio” value was found to be 1.29. To G9C C12A C13U belongs 1.35. To G9C C12A C13G belongs 1.1. With G9A U10G C12U C13A, the “aptazyme ON/OFF ratio” value was determined as 1.37. For G9A U10G C12U C13G, the “aptazyme ON/OFF ratio” value was found to be 1.35.

On to G9A U10G C12U C13U, for which the “aptazyme ON/OFF ratio” value was 1.05. To G9A U10G U11C C12G C13G belongs 1.27; to G9A U10G U11C C12G C13A, 1.11.

With G9A U10G U11C C12G C13U, the “aptazyme ON/OFF ratio” value amounted to 1.24. Under G9C U10C U11C C12U C13U stands 1.03; under G9C U10C U11C C12U C13A, 1.02.

As to G9C U10C U11C C12U C13G, the “aptazyme ON/OFF ratio” value is 1.01. As to G9C U10A U11C C13G, the “aptazyme ON/OFF ratio” value was 1.04. To G9C U10A U11C C13A belongs 1.09; to G9C U10A U11C C13U, 1.06.
